Earlier results in PMC4321732.
pKd: −log10 of the molar value.

Assays:
[1] = target: Histone H4K20me2 (Homo sapiens) (UniProt P62805)
[2] = target: p53K370me2 (Homo sapiens) (UniProt P04637)
[3] = target: p53K382me2 (Homo sapiens) (UniProt P04637)
Sequence of p53K382me2 (Homo sapiens) (P04637 whole entry): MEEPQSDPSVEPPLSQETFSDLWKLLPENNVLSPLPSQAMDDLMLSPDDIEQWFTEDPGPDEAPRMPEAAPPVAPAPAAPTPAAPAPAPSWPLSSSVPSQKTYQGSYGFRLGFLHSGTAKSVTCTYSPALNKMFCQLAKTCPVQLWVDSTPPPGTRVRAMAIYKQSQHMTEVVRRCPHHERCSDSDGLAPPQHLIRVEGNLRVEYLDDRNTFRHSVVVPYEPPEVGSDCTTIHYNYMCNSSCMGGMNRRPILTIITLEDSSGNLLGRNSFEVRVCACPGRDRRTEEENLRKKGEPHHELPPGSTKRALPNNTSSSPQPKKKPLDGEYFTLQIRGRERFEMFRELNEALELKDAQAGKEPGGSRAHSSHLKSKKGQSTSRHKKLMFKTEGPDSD

Sequence of 53BP1 TTD tandem Tudor domain (Q12888 1484-1603): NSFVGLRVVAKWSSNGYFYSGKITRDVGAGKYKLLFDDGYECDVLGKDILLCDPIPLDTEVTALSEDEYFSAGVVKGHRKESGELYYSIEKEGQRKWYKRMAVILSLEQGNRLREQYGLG
Sequence of p53K370me2 (Homo sapiens) (P04637 whole entry): as the sequence (P04637 whole entry) above

53BP1 TTD tandem Tudor domain (from UniProt Q12888)
pKd [1]: 5.89 | pKd [2]: 4.70 | pKd [3]: 6.05
